Legend:
[1] = target: WIV1 spike protein (bat SARS-like coronavirus WIV1); experiment: cell-based or functional assay
[2] = target: SARS-CoV-1 spike protein (SARS-CoV-1) (UniProt P59594); experiment: cell-based or functional assay
[3] = target: HIV-1 Env peptide, biotinylated (negative control) (HIV-1); experiment: DELFIA on captured biotin-peptide; parameters: unit not given beside the values

## Bebtelovimab (antibody)
[1]
  pseudovirus neutralization Emax (% neutralization): 6.99
[2]
  pseudovirus neutralization Emax (% neutralization): 8

## isotype control (palivizumab variable regions expressed as human IgG1 with LS mutation in the Fc region) (antibody)
[3]
  AUC: 41500
